T1: HIS-NF-YB1 (Oryza sativa L. (rice; cultivar not …, UniProt Q6Z348 1-186)
T1 sequence: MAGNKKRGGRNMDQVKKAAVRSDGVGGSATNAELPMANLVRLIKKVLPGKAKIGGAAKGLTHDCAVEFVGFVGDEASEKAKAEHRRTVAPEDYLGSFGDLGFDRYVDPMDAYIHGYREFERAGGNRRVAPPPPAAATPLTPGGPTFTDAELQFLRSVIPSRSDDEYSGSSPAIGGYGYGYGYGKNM


Assays:
LGF2‐pBT = test: two-hybrid; bacterial two-hybrid (BacterioMatch II) in E. coli XL1‐Blue MRF′; NF‐YB1‐pTRG and NF‐YCs‐pBT; growth on M9/+Cm/+Ter/+3‐AT/+Strep/‐HIS against M9/+Cm/+Ter; intensity = ratio (%) of colony numbers
[1] = biological target: HIS‐NF‐YB1 (rice (Oryza sativa L.)) (UniProt Q6Z348)
[2] = biological target: GST‐NF‐YC12 (rice (Oryza sativa L.))
[3] = biological target: NF‐YC12‐pBT (rice (Oryza sativa L.)); test: two-hybrid; bacterial two-hybrid (BacterioMatch II) in E. coli XL1‐Blue MRF′; NF‐YB1‐pTRG and NF‐YCs‐pBT; growth on M9/+Cm/+Ter/+3‐AT/+Strep/‐HIS against M9/+Cm/+Ter; intensity = ratio (%) of colony numbers
HIS-NF-YB1 = biological target: T1, HIS-NF-YB1; test: EMSA; EMSA: Beyotime EMSA/Gel-shift binding buffer (composition and pH not given), 10 uL, 2 nmol biotin probe, 5 nmol protein, 20 min preincubation + 20 min at 25 C; conditions: protein: recombinant; tags: N-terminal His (pET28a); label: biotin; blunt

| Molecule | binding result (HIS-NF-YB1) | also measured |
| --- | --- | --- |
| Gal11‐pTRG |  | interaction intensity (ratio of colony numbers on selective and non-selective medium) (LGF2‐pBT): 33.8% |
| HIS‐bHLH144‐FLAG (natural protein) |  | half-life of HIS‐NF‐YB1 in a cell-free degradation assay with GST‐NF‐YC12 and HIS‐bHLH144‐FLAG added (heterotrimer); around 15 min for HIS‐NF‐YB1 alone [1]: 40 min |
| HIS‐NF‐YB1 (natural protein) MAGNKKRGGRNMDQVKKAAVRSDGVGGSATNAELPMANLVRLIKKVLPGKAKIGGAAKGLTHDCAVEFVGFVGDEASEKAKAEHRRTVAPEDYLGSFGDLGFDRYVDPMDAYIHGYREFERAGGNRRVAPPPPAAATPLTPGGPTFTDAELQFLRSVIPSRSDDEYSGSSPAIGGYGYGYGYGKNM |  | half-life of HIS‐NF‐YB1 in a cell-free degradation assay (total protein extract of 10 DAG rice seedlings) with GST‐NF‐YC12 added; around 15 min for HIS‐NF‐YB1 alone [2]: 30 min |
| NF‐YB1‐pTRG (natural protein) MAGNKKRGGRNMDQVKKAAVRSDGVGGSATNAELPMANLVRLIKKVLPGKAKIGGAAKGLTHDCAVEFVGFVGDEASEKAKAEHRRTVAPEDYLGSFGDLGFDRYVDPMDAYIHGYREFERAGGNRRVAPPPPAAATPLTPGGPTFTDAELQFLRSVIPSRSDDEYSGSSPAIGGYGYGYGYGKNM |  | interaction intensity (ratio of colony numbers on selective and non-selective medium) [3]: 63.7% |
| Wx promoter probe 2 (dsDNA) DNA 1: CAGGCACTCAGCTCGCTGCTGGTCCCGCACGTCGCCACACGATCGACGTACGCACGCGAG DNA 2: CTCGCGTGCGTACGTCGATCGTGTGGCGACGTGCGGGACCAGCAGCGAGCTGAGTGCCTG | no binding |  |
| Wx promoter probe 3 (dsDNA) DNA 1: CGTAATTCCAAGTTCTTTTTTTTTTGTCAGCACGTACAAGCAGCCGCTAGCCTCGCCCTG DNA 2: CAGGGCGAGGCTAGCGGCTGCTTGTACGTGCTGACAAAAAAAAAAGAACTTGGAATTACG | no binding |  |
| Wx promoter probe 5 (dsDNA) DNA 1: AGATCATATCGTCTCCAGACTCAAGTGCACGTTGATCGTTCGCTCACTGCTTCATCGATC DNA 2: GATCGATGAAGCAGTGAGCGAACGATCAACGTGCACTTGAGTCTGGAGACGATATGATCT | no binding |  |
| Wx promoter probe 4 (dsDNA) DNA 1: CAACGTGCCAACGTACGCACGCTAACGTGAGTCATGTAGCGTAATTCCAAGTTCTTTTTT DNA 2: AAAAAAGAACTTGGAATTACGCTACATGACTCACGTTAGCGTGCGTACGTTGGCACGTTG | no binding |  |

From article PMC6576074, “NF‐YB1‐YC12‐bHLH144 complex directly activates Wx to regulate grain quality in rice (Oryza sativa L.)”
